Laboratory results as given in article PMC11082093, “A 3′‐pre‐tRNA‐derived small RNA tRF‐1‐Ser regulated by 25(OH)D promotes proliferation and stemness by inhibiting the function of MBNL1 in breast cancer”.

What was measured:
MBNL1 recombinant [1] = target: T1, MBNL1 recombinant (UniProt Q9NR56 1-388); test: competition; excess unlabelled vs biotin-labelled tRF-1-Ser; EMSA; EMSA: REMSA Binding Buffer (Beyotime), 4 °C, 10 min; 6% TBE PAGE in ice box; salt and pH not given; settings: protein: commercial
T1 sequence: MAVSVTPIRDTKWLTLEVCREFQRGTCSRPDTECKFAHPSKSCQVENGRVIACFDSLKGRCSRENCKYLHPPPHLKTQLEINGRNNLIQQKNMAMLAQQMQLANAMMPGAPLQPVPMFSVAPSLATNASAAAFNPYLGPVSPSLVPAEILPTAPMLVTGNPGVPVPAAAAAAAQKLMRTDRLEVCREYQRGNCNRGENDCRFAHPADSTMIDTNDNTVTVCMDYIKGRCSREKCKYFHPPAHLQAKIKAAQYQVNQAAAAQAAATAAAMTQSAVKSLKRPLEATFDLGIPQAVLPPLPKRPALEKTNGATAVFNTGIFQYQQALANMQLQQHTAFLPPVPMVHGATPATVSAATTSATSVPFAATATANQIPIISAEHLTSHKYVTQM

MBNL1 recombinant [2] = target: T1, MBNL1 recombinant; test: EMSA; EMSA: REMSA Binding Buffer (Beyotime), 4 °C, 10 min; 6% TBE PAGE in ice box; salt and pH not given; settings: protein: commercial; label: biotin

Binder | binding result (MBNL1 recombinant [1]) | binding result (MBNL1 recombinant [2])
GAAGCGGGUGCUCUUAUUUU (ssRNA) [tRF-1-Ser unlabelled (mimic)] | binds | 
GAAGCGGGUGCUCUUAUUUU (ssRNA) [tRF-1-Ser] |  | binds
GAAGCGGGCAACCUUAUUUU (ssRNA) [tRF-1-Ser-UGCU-mut] |  | no binding
